# From IntAct's records for PubMed 16230351
# B1: E3 ubiquitin-protein ligase SIAH1 (Homo sapiens), Q8IUQ4 (parent)
# chain: MSRQTATALPTGTSKCPPSQRVPALTGTTASNNDLASLFECPVCFDYVLPPILQCQSGHLVCSNCRPKLTCCPTCRGPLGSIRNLAMEKVANSVLFPCKYASSGCEITLPHTEKADHEELCEFRPYSCPCPGASCKWQGSLDAVMPHLMHQHKSITTLQGEDIVFLATDINLPGAVDWVMMQSCFGFHFMLVLEKQEKYDGHQQFFAIVQLIGTRKQAENFAYRLELNGHRRRLTWEATPRSIHEGIATAIMNSDCLVFDTSIAQLFAENGNLGINVTISMC
# partner: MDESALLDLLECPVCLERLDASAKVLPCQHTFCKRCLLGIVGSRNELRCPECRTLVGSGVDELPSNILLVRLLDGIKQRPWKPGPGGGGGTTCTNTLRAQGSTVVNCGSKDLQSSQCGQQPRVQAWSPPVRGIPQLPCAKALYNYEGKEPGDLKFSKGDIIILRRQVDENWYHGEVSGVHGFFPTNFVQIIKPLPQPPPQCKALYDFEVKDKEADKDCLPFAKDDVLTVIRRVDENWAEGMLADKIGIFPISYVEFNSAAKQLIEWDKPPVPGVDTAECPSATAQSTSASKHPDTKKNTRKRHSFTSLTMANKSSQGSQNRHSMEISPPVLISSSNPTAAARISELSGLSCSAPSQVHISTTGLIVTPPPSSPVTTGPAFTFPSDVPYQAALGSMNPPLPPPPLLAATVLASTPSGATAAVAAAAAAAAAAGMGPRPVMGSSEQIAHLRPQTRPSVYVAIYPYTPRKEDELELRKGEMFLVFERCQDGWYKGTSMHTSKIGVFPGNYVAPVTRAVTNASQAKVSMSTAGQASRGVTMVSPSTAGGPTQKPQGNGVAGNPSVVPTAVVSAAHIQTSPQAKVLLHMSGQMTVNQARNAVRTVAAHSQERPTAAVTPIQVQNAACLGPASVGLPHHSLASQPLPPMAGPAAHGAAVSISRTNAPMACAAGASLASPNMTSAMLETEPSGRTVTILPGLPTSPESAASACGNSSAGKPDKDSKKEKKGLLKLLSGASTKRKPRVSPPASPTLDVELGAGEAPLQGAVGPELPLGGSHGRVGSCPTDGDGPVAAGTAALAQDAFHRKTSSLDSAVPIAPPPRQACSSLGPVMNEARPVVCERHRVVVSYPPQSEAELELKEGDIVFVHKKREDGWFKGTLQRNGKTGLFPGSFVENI
# Variants of: B1
# Conditions: with sh3r1_mouse Sh3rf1, Q69ZI1
row,Variant,effect of a mutation on the interaction
1,C41S;C44S,decreasing interaction
